This series has as its target T1, RecA (UniProt P0A7G6).
T1 sequence: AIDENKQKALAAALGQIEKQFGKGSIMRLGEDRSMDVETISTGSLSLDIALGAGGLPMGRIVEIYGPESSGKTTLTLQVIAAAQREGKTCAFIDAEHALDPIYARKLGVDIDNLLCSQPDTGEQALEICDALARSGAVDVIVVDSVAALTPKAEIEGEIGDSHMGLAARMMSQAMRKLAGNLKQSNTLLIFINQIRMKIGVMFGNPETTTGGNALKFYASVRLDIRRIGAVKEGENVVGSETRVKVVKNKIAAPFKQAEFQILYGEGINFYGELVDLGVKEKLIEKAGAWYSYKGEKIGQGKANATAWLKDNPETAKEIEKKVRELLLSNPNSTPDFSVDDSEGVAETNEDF
The series can be described thus: EMSA. As to conditions: 5'-acridine; C5-propynyl-dU, 5-methyl-dC, 7-deaza-dG in TFO; triethyleneglycol spacer between TFO and adapter; with Y0Gorec plasmid, 15 uM RecA, ATPgammaS, ADP, 12.5 mM MgCl2; 22% without RecA; 100% of complex associated with plasmid in RecA reaction. On the technique in general: In EMSA bound probe runs differently from free probe, usually more slowly.

As to “NNNNNTNTNNNGNGGNGCGCGTGGCCAGC [TFO1-S + R (GOREC with homologous 40-nt R)]”, the activity (% joint molecules in 5 min) stood at 80.

Source of the values: patent publication US20030003547.
